US20200317802A1 (Merck KGaA, published 2020)

T1: recombinant human ADAMTS5 (R&D Systems cat #2198-AD) (human, UniProt Q9UNA0 262-622, limits assumed)
T1 construct: bought protein
T1 sequence: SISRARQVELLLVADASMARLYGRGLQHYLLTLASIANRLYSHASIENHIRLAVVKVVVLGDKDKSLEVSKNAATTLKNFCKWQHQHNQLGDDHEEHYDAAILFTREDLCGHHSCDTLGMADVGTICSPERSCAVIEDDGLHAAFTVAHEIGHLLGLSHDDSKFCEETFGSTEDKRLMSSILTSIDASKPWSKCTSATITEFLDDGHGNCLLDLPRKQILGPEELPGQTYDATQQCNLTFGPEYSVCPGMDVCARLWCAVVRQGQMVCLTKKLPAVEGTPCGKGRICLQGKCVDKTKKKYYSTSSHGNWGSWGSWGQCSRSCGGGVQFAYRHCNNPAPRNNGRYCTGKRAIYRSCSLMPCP

T2: mouse recombinant ADAMTS5 (mouse, UniProt Q9R001 262-622, limits assumed)
T2 construct: in house, HEK293, His tag in the entry
T2 sequence: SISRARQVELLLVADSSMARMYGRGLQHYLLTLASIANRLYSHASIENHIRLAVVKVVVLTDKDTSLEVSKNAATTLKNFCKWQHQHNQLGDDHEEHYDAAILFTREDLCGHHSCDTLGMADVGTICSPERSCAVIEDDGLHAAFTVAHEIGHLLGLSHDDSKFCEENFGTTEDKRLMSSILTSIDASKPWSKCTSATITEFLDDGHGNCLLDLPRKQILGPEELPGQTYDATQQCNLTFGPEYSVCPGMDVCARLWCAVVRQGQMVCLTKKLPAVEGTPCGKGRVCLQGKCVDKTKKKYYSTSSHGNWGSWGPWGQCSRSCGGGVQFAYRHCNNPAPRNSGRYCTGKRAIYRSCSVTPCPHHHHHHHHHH

T3: cynomolgus monkey recombinant ADAMTS5 (cynomolgus monkey, UniProt Q9UNA0 262-622 (human entry), limits assumed)
T3 construct: in house, HEK293, His tag in the entry; also called cyno ADAMTS5
T3 chain: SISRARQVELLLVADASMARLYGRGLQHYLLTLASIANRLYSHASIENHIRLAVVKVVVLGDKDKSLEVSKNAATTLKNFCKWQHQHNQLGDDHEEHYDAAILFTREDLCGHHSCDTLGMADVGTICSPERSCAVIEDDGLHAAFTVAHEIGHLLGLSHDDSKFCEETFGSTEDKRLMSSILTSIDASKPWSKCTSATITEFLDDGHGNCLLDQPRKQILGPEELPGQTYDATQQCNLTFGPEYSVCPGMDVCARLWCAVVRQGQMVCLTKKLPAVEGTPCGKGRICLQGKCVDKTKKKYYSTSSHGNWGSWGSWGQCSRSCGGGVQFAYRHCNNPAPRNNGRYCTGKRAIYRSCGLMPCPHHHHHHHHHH

T4: guinea pig recombinant ADAMTS5 (guinea pig)
T4 construct: in house, HEK293, His tag in the entry
T4 chain: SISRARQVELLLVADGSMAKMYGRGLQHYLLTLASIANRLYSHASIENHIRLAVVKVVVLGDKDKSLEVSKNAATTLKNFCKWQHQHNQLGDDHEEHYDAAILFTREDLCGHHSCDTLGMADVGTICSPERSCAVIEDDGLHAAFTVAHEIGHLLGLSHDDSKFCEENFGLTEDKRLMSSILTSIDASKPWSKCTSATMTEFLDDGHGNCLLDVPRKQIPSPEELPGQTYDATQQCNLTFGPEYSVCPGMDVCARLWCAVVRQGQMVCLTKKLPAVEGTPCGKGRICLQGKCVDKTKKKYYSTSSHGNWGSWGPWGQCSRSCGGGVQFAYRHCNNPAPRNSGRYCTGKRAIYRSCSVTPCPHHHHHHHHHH


Tests used:
[1] = target: T1, recombinant human ADAMTS5 (R&D Systems …); assay: binding ELISA, periplasmic extract on coated human ADAMTS5
Experimental: In a first step, periplasmic extracts were tested for binding to recombinant human ADAMTS5 by binding ELISA. In brief, recombinant human ADAMTS5 (R&D Systems, Minneapolis, US; cat #2198-AD) at a concentration of 1 μg/ml was coated on 384-well MaxiSorp plates (Nunc, Wiesbaden, Germany). Wells were blocked with a casein solution (1%). After addition of a 10-fold dilution of the periplasmic extracts, Nanobody binding was detected using a mouse anti-Flag-HRP conjugate (Sigma, St. Louis, US) and a subsequent enzymatic reaction in the presence of the substrate esTMB (3,3′,5,5′-tetramentylbenzidine) (SDT, Brussels, Belgium). Clones showing ELISA signals higher than the sum of the average signal of the irrelevant Nanobody controls and 3 times the standard deviation of the irrelevant Nanobody controls were considered to encode positive human ADAMTS5 binding Nanobodies.

[2] = target: T1, recombinant human ADAMTS5 (R&D Systems …); assay: cell-based or functional assay
[3] = target: T1, recombinant human ADAMTS5 (R&D Systems …); assay: cell-based or functional assay; remark: listed apart in the source
[4] = target: T1, recombinant human ADAMTS5 (R&D Systems …); assay: SPR off-rate, Biacore T100, ADAMTS5 immobilised, experiment 2
Experimental: (§1) Species cross-reactivity was initially evaluated via SPR-based off-rate analysis on a Biacore T100 instrument. Nanobodies were tested for binding to human, cynomolgus monkey (“cyno”), guinea pig, mouse, and bovine ADAMTS5. To this end, recombinant ADAMTS5 was immobilized onto a CM5 chip via amine coupling using EDC and NHS. Purified Nanobodies were injected for 2 minutes at a concentration of 100 nM and allowed to dissociate for 15 min at a flow rate of 45 ul/min. Off-rate for each individual Nanobody was determined by fitting a 1:1 interaction model (Langmuir model) onto the individual dissociation curves using the BIA Evaluation software. As a reference, off-rates on human ADAMTS5 were determined in each experiment.

[5] = target: T2, mouse recombinant ADAMTS5; assay: as above
Experimental: as §1

[6] = target: T3, cynomolgus monkey recombinant ADAMTS5; assay: SPR off-rate, Biacore T100, ADAMTS5 immobilised, experiment 1
Experimental: as §1

[7] = target: T1, recombinant human ADAMTS5 (R&D Systems …); assay: as above
Experimental: as §1

[8] = target: T4, guinea pig recombinant ADAMTS5; assay: as above
Experimental: as §1

[9] = target: T3, cynomolgus monkey recombinant ADAMTS5; assay: cell-based or functional assay
[10] = target: T1, recombinant human ADAMTS5 (R&D Systems …); assay: cell-based or functional assay; remark: listed apart in the source
[11] = target: T4, guinea pig recombinant ADAMTS5; assay: cell-based or functional assay
[12] = target: T1, recombinant human ADAMTS5 (R&D Systems …); assay: SPR off-rate, Biacore T100, ADAMTS5 immobilised, experiment 3
Experimental: as §1

[13] = target: T1, recombinant human ADAMTS5 (R&D Systems …); assay: cell-based or functional assay; remark: listed apart in the source
[14] = target: T1, recombinant human ADAMTS5 (R&D Systems …); assay: cell-based or functional assay; remark: listed apart in the source

binding ELISA (OD 450 nm) [1] [OD 450 nm]	Human AlphaLISA % inhibition [2] [%]	Human AlphaLISA IC50 [2] [nM]	FRET assay % inh, periplasmic extract [3] [%]	FRET assay vi (U/min), periplasmic extract [3] [U/min]	koff [4] [s⁻¹]	koff [5] [s⁻¹]	koff [6] [s⁻¹]	koff [7] [s⁻¹]	koff [8] [s⁻¹]	AlphaLISA potency IC50, Cyno [9] [nM]	AlphaLISA potency IC50, Human [10] [nM]	AlphaLISA potency IC50, Guinea pig [11] [nM]	koff [12] [s⁻¹]	AlphaLISA IC50, - HSA [13] [nM]	AlphaLISA IC50, Exp 1 [14] [nM]	AlphaLISA IC50, Exp 2 [14] [nM]	AlphaLISA IC50, Exp 3 [14] [nM]	AlphaLISA IC50, Exp 4 [14] [nM]	Binder
2.57	96	0.39	111	-2	0.00032	0.00064	0.0002	0.00023	0.00027	0.22	0.39	0.35	0.00046						Nanobody 3D01 (VHH, tagged as tested (anti-Flag detection, IMAC); also called 03D01) VHH: EVQLVESGGGLVQAGGSLRLSCAPSGFTFSPYYMGWFRQAPGKERDFVAAISRSRGTTYYLDSTEGRFTISRDNANDTVYLQMNSLNPEDTAVYYCAAGRSPGDPSRTYLYDYWGQGTLVTVSS
	100	0.11	110	-2	0.0012	0.0037	0.00092	0.00098	0.001	0.12	0.11	0.13	0.0014	0.11					Nanobody 9D03 (VHH, tagged as tested (anti-Flag detection, IMAC); also called 09D03; 9D3) VHH: EVQLVESGGGLVQSGGSLRLSCAASGSAVSVNAMAWYRQAPGKQRDFVAGISRSAGRTYYTDSVKDRFTIARDSAKNTVYLQMNRLKPEDTAVYYCAADLDPNRIFSRDEAAYWGQGTLVTVSS
1.55	100	0.19	104	-1	0.00094	0.0018	0.00098	0.0011	0.0011	0.15	0.19	0.36	0.001	0.19					Nanobody 2D07 (VHH, tagged as tested (anti-Flag detection, IMAC); also called 02D07; 2D7) VHH: EVQLVESGGGLVQAGGSLRLSCSFSGPGRTFARYAMGWFRQAPGKNRDFITGISGSGDSTYYVYPMKDRFTISRDNAKNMVYLQMNALKPEDTAVYYCAADREINRIANDKELDFWGQGTLVTVSS
															0.2	0.27	0.19	0.44	monovalent Nanobody 2F3^SO (2F3*) (VHH) VHH: DVQLVESGGGVVQPGGSLRLSCAASGRTVSSYAMGWFRQAPGKEREFVAGISRSAERTYYVDSLKGRFTISRDNSKNTVYLQMNSLRPEDTALYYCAADLDPNRIFSREEYAYWGQGTLVTVSS
2.57	100	0.3	105	-1	0.00085	0.002	0.00074	0.00073	0.001	0.19	0.3	0.46	0.0012	0.3					Nanobody 3B02 (VHH, tagged as tested (anti-Flag detection, IMAC); also called 03B02; 3B2) VHH: EVQLVESGGGFVQAGGSLRLSCVASRRTISSGTMGWFRQAPGKEREFVAAIRWSSGMPYYLDSVMDRFTISRDNAKNTVSLQMNSLQPEDTAVYYCAADRSAFRDPSFDVNYEYWGRGTLVTVSS
	100	0.1	106	-1	0.00027	0.00053	0.00014	0.00017	0.00017	0.12	0.1	0.35	0.00038						Nanobody 11B06 (VHH, tagged as tested (anti-Flag detection, IMAC)) VHH: EVQLVESGGGLVQAGGSLRLSCAASGLTFRRNAMGWFRQAPGKERELLAGINWSGGTTYYVDSVKGRFTISRDNAKNTVDLQMISPKPEDTAVYYCAADGDIGTLVNDENPRYWGQGTLVTVSS
